From paper PMC5014518

Target: T1, 2x-p19-TAT (Carnation Italian Ringspot Virus, UniProt Q66104 1-172)
T1 sequence: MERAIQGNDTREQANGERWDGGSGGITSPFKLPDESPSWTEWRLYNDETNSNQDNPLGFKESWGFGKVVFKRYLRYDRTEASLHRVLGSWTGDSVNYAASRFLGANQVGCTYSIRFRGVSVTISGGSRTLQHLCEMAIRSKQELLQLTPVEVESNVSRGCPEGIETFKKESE
Assay: EMSA

B1: Cy3-CSK siRNA (dsRNA)
RNA 1: CUACCGCAUCAUGUACCAUTT
RNA 2: AUGGUACAUGAUGCGGUAGTT
modifications: 3' dTdT on both strands (DNA residues written TT)
  Kd: 0.44 ± 0.16 nM
